1 substance from publication PMC2196380 can be followed below.

In this assay the target is HLA-DM (DMα/DMβ heterodimer) (human (endogenous in B-LCL)) (UniProt P28067). Nature of the assay: co-IP.
Sequence of UniProt P28067 (P28067 27-261, chain 1 of 2): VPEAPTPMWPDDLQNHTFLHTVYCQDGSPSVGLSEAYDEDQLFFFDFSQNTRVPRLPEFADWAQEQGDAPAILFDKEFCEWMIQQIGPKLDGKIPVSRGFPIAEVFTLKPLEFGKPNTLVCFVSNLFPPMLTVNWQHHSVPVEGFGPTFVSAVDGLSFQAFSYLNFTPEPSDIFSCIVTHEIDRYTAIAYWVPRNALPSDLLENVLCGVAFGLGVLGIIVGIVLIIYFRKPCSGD
Sequence of UniProt P28067 (P28068 19-263, chain 2 of 2, further chain): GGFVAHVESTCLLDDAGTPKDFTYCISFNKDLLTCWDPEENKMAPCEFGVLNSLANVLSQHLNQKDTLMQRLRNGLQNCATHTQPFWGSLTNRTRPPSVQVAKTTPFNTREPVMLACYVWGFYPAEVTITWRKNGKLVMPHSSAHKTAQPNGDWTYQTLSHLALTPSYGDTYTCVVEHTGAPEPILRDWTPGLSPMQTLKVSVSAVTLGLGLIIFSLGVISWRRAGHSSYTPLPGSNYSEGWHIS

“wild-type HLA-DR3 αβCLIP complexes from T2.DR3 cells (from UniProt P01903 26-254) (peptide-MHC)” displayed a percent coprecipitated with DM of 14%.
